The results in this text go back to the supplement of paper PMC12455559.

± gives the standard deviation of the averaged measurements. Where only a bound is given, the exact number is not on record here.

Data set [1] is described as follows: melting temperature (DSF); higher = more thermostable. The essentials:
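Values are melting temperatures from differential scanning fluorimetry. Candidate enzymes were expressed in E. coli C41(DE3), purified on nickel beads and freed by SUMO protease cleavage. In sealed PCR plates on a Bio-Rad CFX96, 45 μL enzyme (0 to 0.3 mg/mL) was combined with 5 μL 5X Sypro Orange. Fluorescence was recorded from 25 °C for 250 cycles, rising 0.3 °C per cycle at a ramp of 0.3 °C/s.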

The nature of data set [2]: PET hydrolysis, aromatic products released after 48 h (umol product/mg enzyme); higher = more PET depolymerization activity. Put shortly: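 Reactions ran in sealed plates without shaking for 48 h at 40 or 60 °C. Each held 3.5 mg amorphous PET film or crystalline PET powder, 450 μL buffer and 5 μg (50 μL) of tagless, SUMO-cleaved, nickel-purified candidate enzyme. Buffers were 50 mM NaCitrate at pH 4.5 or 5.5, 50 mM NaPhosphate at pH 6.5 or 7.5, and glycine at pH 8.5. The supernatant's aromatic product, read at 260 and 280 nm against buffer blanks, gives PET hydrolysis activity per mg enzyme.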

The nature of data set [3]: purified protein yield per well (BCA); higher = higher soluble expression. The essentials: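 Candidate enzymes were produced in E. coli C41(DE3) grown in 2 mL autoinduction cultures containing 100 µg/mL kanamycin, first at 37 °C for 2 h and then at 18 °C for 40 h. After cell lysis, protein was captured on Ni-charged magnetic beads and freed by SUMO protease cleavage on an OT-2 robot. Purified protein yield per well was read with the Pierce Rapid Gold BCA kit. Values under 25 ug (0.1 mg/mL) fall below the detection threshold.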

[4] abbreviates: substrate: aFilm, 40 °C, pH 4.5.
The mark [5] stands for this setting: substrate: aFilm, 40 °C, pH 5.5.
[6] abbreviates: substrate: aFilm, 40 °C, pH 6.5.
Where [7] appears, read: substrate: aFilm, 40 °C, pH 7.5.
Where [8] appears, read: substrate: aFilm, 60 °C, pH 4.5.
Where [9] appears, read: substrate: aFilm, 60 °C, pH 5.5.
The mark [10] stands for this setting: substrate: aFilm, 60 °C, pH 6.5.
The mark [11] stands for this setting: substrate: aFilm, 60 °C, pH 7.5.
[12] abbreviates: substrate: cryPow, 40 °C, pH 4.5.
Setting [13] is: substrate: cryPow, 40 °C, pH 5.5.
Setting [14] is: substrate: cryPow, 40 °C, pH 6.5.
[15] abbreviates: substrate: cryPow, 40 °C, pH 7.5.
[16] abbreviates: substrate: cryPow, 60 °C, pH 4.5.
Where [17] appears, read: substrate: cryPow, 60 °C, pH 5.5.
Setting [18] is: substrate: cryPow, 60 °C, pH 6.5.
Setting [19] is: substrate: cryPow, 60 °C, pH 7.5.

In data set [1], “ADNPYQRGPDPTRASVAAVNGPFVNTSVSVPTGYGFNGGRIYYPTDTSQGTFGAIAISPGYTALFSAELAWMGPWLASHGFVVIGIETNSRNDFDTARGTQLLAALDYLTQQSPVRDRVDPNRLAVSGHSMGGGGALSAAIRRSSLKAAVGITPYSPSQNLANDRVPTMVISGQADTVVTPSYALGLYNSLPASTESVYLEVAGGDHGFMVGRSNPVLIRTMLPFLKMFVDNDSRYSQFLCPLLDSSGVVTYRSTCPLLPTNPTTPPPTGTPTPTPTSTPTPTPTPTTPPPSGSANE [ESM091]” came in with a melting temperature of 62.5 C. Further, the PET hydrolysis in data set [2] (setting [4]), in data set [2] (setting [5]), in data set [2] (setting [6]), in data set [2] (setting [7]), in data set [2] (setting [8]) and in data set [2] (setting [9]) was under 3 each time. Also, the PET hydrolysis in data set [2] (setting [10]) was under 3; in data set [2] (setting [11]), under 3; in data set [2] (setting [12]), 13.5 ± 0.71; in data set [2] (setting [13]), 28 ± 1.4; in data set [2] (setting [14]), 10; in data set [2] (setting [15]), under 3. Besides, the PET hydrolysis in data set [2] (setting [16]), in data set [2] (setting [17]), in data set [2] (setting [18]) and in data set [2] (setting [19]) was under 3 in each case. Besides, the “purified protein yield per well” value in data set [3] is 336 µg.
“AAGYERGPNPTSSALEATRGPFSVASTNVSSLSASGFGGGTIYYPTDTSQGTFGGVVIAPGYTASKSSMAWLAERLASHGFVVFNIDTITRSDQPDSRGRQILAAADHLAEESSSTVRRRLDASRIGVMGHSMGGGGTLAAADSRPSLKAAVPLTPWHLDKSWGNVRVPTMIIGAENDTIAAVGSHSEPFYNSLSAAPEKAYLELNGASHFAPNSDNDTIAKYGISWMKRFVDEDTRYDQFLCPAPGRSTTIEEYRSSCPHS [DP086]” registered a melting temperature in data set [1] of 39.1 C. Besides, the PET hydrolysis in data set [2] (setting [13]) is under 3; in data set [2] (setting [14]), under 3; in data set [2] (setting [15]) it was under 3; in data set [2] (substrate: cryPow, 40 °C, pH 8.5), under 3; in data set [2] (setting [17]), under 3; in data set [2] (setting [18]), under 3. The PET hydrolysis in data set [2] (setting [19]) was under 3; in data set [2] (substrate: cryPow, 60 °C, pH 8.5) it was under 3. Further, the “purified protein yield per well” value in data set [3] was found to be 90 µg.
In data set [1], “DQVGQAPTADNITGNGSFATTSAAITNQTGFGGGTVYYPTADGTYPVVAIVPGFAATWSQISWLGPRVASWGFVVVGVDTTSVFDSPQQRGDEFLAALNWAANSAPASTRGKVDGTRRGVAGWSMGGGGTLEAMAKDTTLKAGVPLAPWDTTQDWSKIGKPVFIVGAQNDLIAPPASHAIPFYNSLAGPKSYLELAGADHFFPISANPTVSRAVVSWFKRFVSADDRFAPFTCGFAGAAVSAFRTTAC [TEP103]” yielded a melting temperature of 71.8 C. The PET hydrolysis turned out to be 19 in data set [2] (setting [12]), 35 in data set [2] (setting [13]), 71 in data set [2] (setting [14]) and 43 in data set [2] (setting [15]). Besides, in data set [3], the “purified protein yield per well” value was found to be 45.9 µg.
The sequence “QDNSQGRYRPEGRQIGVAAGREFGERIYEVRTYETNPGIAEFADVMVFYPLTLSFDRPNGAIAFSPGFRAAADNYEWWGPALASLGYNVFILNTNEPTDDLDARADALAALVDFIKAENANPDSPVANKIDEEKIALMGHSMGGGAALAAADRLGDAVGAVIPLALYCCNPGGSFEGDYGSLSAAALVIASAEDTVAPPEAHARLLYDSLGSENKIYMEFAAGDHMFPANGGPELATMGRFTLAFLKAYLDGVAGLEQHVTSPSDEYAERFSTYLAP [TEP035]” registered a melting temperature in data set [1] of 52.3 C. For the same sequence, the PET hydrolysis in data set [2] (setting [12]), in data set [2] (setting [13]), in data set [2] (setting [14]) and in data set [2] (setting [15]) was under 3 in each case. Also, in data set [3], the “purified protein yield per well” value was determined as 51.6 µg.
Sequence “ADNPYQRGPDPTLASVAANRGTFATAQLSVPGDGFGSGVIYYPTDTSQTFGAVAIVPGYSALFSVEEAWMGHWLASFGFVVIGIETISRSDSADARATQLLAALDYLTQRSSVRSRVDASRLSIIGHSAGGAGVLTAVLRRPTLKAAVGLAPGSPVGNYNLSSDRVPTMFISGQRDTTVSQSYLNGIYPTIPASTPSAWVELTGGDHLFPTRANTNMMRVLIPWLKIFVDNDTRYTQFLCPLMDSSGISMYRNKCPYVPTSPSPSPSTSPSPSVSPSPSPSASPSPSPSPSTSPSPQPSGACSATYRTVNSWSGGYQAEVTVTAGSSAINRWSVRWTLSSGQSISQVWNGTLSAGGSSVTVANASYNGSLPASGTTTFGFLANGAPSTPTLTCTSP [ESM034]” had a melting temperature in data set [1] of 59.8 C. Also, the PET hydrolysis in data set [2] (setting [4]), in data set [2] (setting [5]), in data set [2] (setting [6]), in data set [2] (setting [7]), in data set [2] (setting [8]) and in data set [2] (setting [9]) was under 3 each time. In addition, the PET hydrolysis in data set [2] (setting [10]), in data set [2] (setting [11]), in data set [2] (setting [12]), in data set [2] (setting [13]), in data set [2] (setting [14]) and in data set [2] (setting [15]) was under 3 throughout. Moreover, the PET hydrolysis in data set [2] (setting [16]), in data set [2] (setting [17]), in data set [2] (setting [18]) and in data set [2] (setting [19]) was under 3 each time. In data set [3], the “purified protein yield per well” value was determined as 392 µg.
In data set [1], “ADNPYQRGPDPTRTSVTAVNGPFANTSVSVPTGYGFNGGRIYYPTDTSQGTFGAIAISPGYTALFSAELAWMGPWLASHGFVVIGIETNSRNDFDTARGTQLLAALDYLTQQSPVRDRVDPNRLAVSGHSMGGGGALSAAMRRSSLKAVVGITPYSPSSNLANDRVPTMIISGQADTVVTPSYALGLYNSIPTTTKSVYLEVAGGDHGFMVGRSNPVMVRTMLPFVKMFIDNDARYSQFLCPLLDNSGVVTYRSTCPLLPTTPPTGTPTPTPTNSPTTPPPGSASGIVGAQSGRCIDVPNASRSNGTRVQLYDCNRQSNQSWTYTANKQLRVYGDMCLDAAGSGNGAAVQIYSCHNQTNQQWNVNSNGTITGVQSGRCLDVWSTSNGAQVQLYDCHGQANQQFRLAPLA [ESM059]” had a melting temperature of 65.8 C. Also, the PET hydrolysis in data set [2] (setting [4]) is under 3; in data set [2] (setting [5]) it was 2 ± 2.8; in data set [2] (setting [6]) it was 1.5 ± 2.1; in data set [2] (setting [7]) it was under 3; in data set [2] (setting [8]), under 3; in data set [2] (setting [9]), under 3. The PET hydrolysis in data set [2] (setting [10]) was under 3; in data set [2] (setting [11]) it was under 3; in data set [2] (setting [12]), 10; in data set [2] (setting [13]), 21 ± 1.4; in data set [2] (setting [14]), 26; in data set [2] (setting [15]), 21.5 ± 2.1. In addition, the PET hydrolysis in data set [2] (setting [16]) was under 3; in data set [2] (setting [17]), 5; in data set [2] (setting [18]), 4; in data set [2] (setting [19]) it was 2 ± 2.8. Further, the “purified protein yield per well” value in data set [3] turned out to be 311 µg.
